Assay results taken from US20230193332A1.

T1: NdmA (wild-type caffeine N1-demethylase) (UniProt H9N289)
T1 sequence (looked up): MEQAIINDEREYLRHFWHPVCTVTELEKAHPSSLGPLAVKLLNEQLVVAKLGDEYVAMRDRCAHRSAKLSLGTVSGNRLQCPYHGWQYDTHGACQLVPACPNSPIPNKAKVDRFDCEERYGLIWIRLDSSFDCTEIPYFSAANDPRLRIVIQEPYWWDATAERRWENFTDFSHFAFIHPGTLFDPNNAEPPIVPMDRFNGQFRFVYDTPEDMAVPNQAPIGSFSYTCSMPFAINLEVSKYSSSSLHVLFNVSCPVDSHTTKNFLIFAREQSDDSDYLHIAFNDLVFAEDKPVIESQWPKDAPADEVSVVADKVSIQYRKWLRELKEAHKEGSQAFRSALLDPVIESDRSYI

T2: NdmB (wild-type theobromine N3-demethylase) (UniProt H9N290)
T2 sequence (looked up): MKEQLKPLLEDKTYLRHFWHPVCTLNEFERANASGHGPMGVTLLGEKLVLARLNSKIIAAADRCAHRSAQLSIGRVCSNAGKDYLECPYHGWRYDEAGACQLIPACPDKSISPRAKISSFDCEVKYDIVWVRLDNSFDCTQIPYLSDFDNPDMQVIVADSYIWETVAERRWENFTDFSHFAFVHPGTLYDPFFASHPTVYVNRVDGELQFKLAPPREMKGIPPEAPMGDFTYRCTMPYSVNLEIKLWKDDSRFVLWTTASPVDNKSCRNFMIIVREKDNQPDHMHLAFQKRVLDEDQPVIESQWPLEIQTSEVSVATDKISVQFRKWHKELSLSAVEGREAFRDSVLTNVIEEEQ


Experiments:
[1] = target: T1, NdmA (wild-type caffeine N1-demethylase); experiment: cell-based or functional assay
[2] = target: T2, NdmB (wild-type theobromine N3-demethylase); experiment: cell-based or functional assay

Binder | N1-demethylase activity in NdmA cells, lower than in cells with the wild type reductase [1] [% lower] | remaining N-demethylase activity in the in vivo assays (% of the wild-type enzyme) [1] | N3-demethylase activity in NdmB cells, reduction [2] [% reduced] | remaining N-demethylase activity in the in vivo assays (% of the wild-type enzyme) [2]
NdmD V541W mutant (NdmDW) (enzyme, UniProt H9N291 1-588, looked up) MNKLDVNQWFPIATTEDLPKRHVFHATLLGQEMAIWRDDSGSVNAWENRCPHRGLRLTLGANTGNELRCQYHGWTYESGTGGCTFVPAHRDAPPPNAARVNTFPVREKHGFIWTTLGQPPGEPISILDDAQLVNAVKTNLHSVVIDADIDGVVSVLRQNLSAFIDVFGAASAEDLHLKSMLQDRGILVTRSGSIAIHFYMQRSTISKCVVHAQVLTPGRPGYELQKNYSYAMNVIRRAAEAVATDLISITDISDQTIEKLEVVRENMTKAPPTHYICEVVTRTQETGDINSYWLKPIGYPLPAFSPGMHISITTPEGSIRQYSLVNGPDERESFIIGVKKEIQSRGGSRSMHEDVKVGTQLKVTLPRNGFPLVQTRKHPILVAGGIGITPILCMAQALDQQGSSYEIHYFARAFEHVPFQDRLTALGDRLNVHLGLGPDETRAKLPDIMEIHNAQDVDVYTCGPQPMIETVSAVALAHGIAEESIRFEFFSKKNDVPVSDEEYEVELKKTGQIFTVSPGSTLLQACLDNDVRIEASCEQGWCGTCITPVVSGDLEHHDTYLSKKERESGKWIMPCVSRCKSKKIVLDL | 7 | > 60 | 36 | > 60
NdmD V541R mutant (NdmDR) (enzyme, UniProt H9N291 1-588, looked up) MNKLDVNQWFPIATTEDLPKRHVFHATLLGQEMAIWRDDSGSVNAWENRCPHRGLRLTLGANTGNELRCQYHGWTYESGTGGCTFVPAHRDAPPPNAARVNTFPVREKHGFIWTTLGQPPGEPISILDDAQLVNAVKTNLHSVVIDADIDGVVSVLRQNLSAFIDVFGAASAEDLHLKSMLQDRGILVTRSGSIAIHFYMQRSTISKCVVHAQVLTPGRPGYELQKNYSYAMNVIRRAAEAVATDLISITDISDQTIEKLEVVRENMTKAPPTHYICEVVTRTQETGDINSYWLKPIGYPLPAFSPGMHISITTPEGSIRQYSLVNGPDERESFIIGVKKEIQSRGGSRSMHEDVKVGTQLKVTLPRNGFPLVQTRKHPILVAGGIGITPILCMAQALDQQGSSYEIHYFARAFEHVPFQDRLTALGDRLNVHLGLGPDETRAKLPDIMEIHNAQDVDVYTCGPQPMIETVSAVALAHGIAEESIRFEFFSKKNDVPVSDEEYEVELKKTGQIFTVSPGSTLLQACLDNDVRIEASCEQGRCGTCITPVVSGDLEHHDTYLSKKERESGKWIMPCVSRCKSKKIVLDL | 30 | > 60 | 20 | > 60
